Source: patent publication US8357523B2, “Beta-glucosidase variant enzymes and related polynucleotides” (Codexis, Inc., priority 2009, dated 2013)
Numbering of substitutions follows the chain as printed. In names and notes the source's numbering stands.

B1: Variant No. 366 (protein)
chain: SAAITQEGAAPAAMLHPEKWPRPATQRLIDPAVEKRVDALLKQLSVEEKVGQVIQGDIGTITPEDLRKYPLGSILAGGDSGPNGDDRAPPKEWLDLADAFYRVSLEKRPGHTPIPVLFGIDAVHGHNNIGSATIFPHNIALGMTRDPELLRRIGEVTAEEMAATGIDWTFAPALSVVRDDRWGRTYEGFSEDPEIVASYSAAIVEGFQGKYGSKDFMAPGRAVACAKHFLADGGTDQGRDQGDARISEDELIRIHNAGYPPAIDAGVLTVMASFSSWQGIKHHGHKQLLTDVLKGQMGFNGFIVGDWNAHDQVPGCTKFNCPTSLIAGLDMYMAADSWKQLYENTLAQVKDGTIPMARLDDAVRRILRVKVLAGLFEKPAPKDRPGLPGLETLGSPEHRAVGREAVRKSLVLLKNDKGTLPLSPKARVLVAGDGADNIGKQSGGWTISWQGTGNRNDEFPGATSILGGIRDAVADAGGSVEFDVAGQYKTKPDVAIVVFGEEPYAEFRGDVETLEYQPDQKQDLTLLKKLKDQGIPVVAVFLSGRPMWVNPELNASDAFVAAWLPGTEGGGVADVLFTDKAGKVQHDFAGKLSYSWPRTAAQTTVNRGDADYNPLFAYGYGLTYKDKSKVGTLPEESGVPAEARQN
modifications: catalytic domain; signal sequence F-10T
B2: Variant No. 391 (protein)
chain: B1 chain with A3R, S73A, V177P, I203Y
modifications: catalytic domain
B3: Variant No. 463 (protein)
chain: B1 chain with A3R, S73A, T169N, V177P, A202P, I203Y, A272L, Q287R, D311G, E512G
modifications: catalytic domain
B4: T2A + A5T + I14M + N79D + G127N + A143M + H145R + V159E + A198S + V207F + F211Y + I222A + S225C + Q508R + A525T-des[A647-L663] (protein)
chain: B1 chain
B5: Variant No. 5 (protein)
chain: STAIAQEGAAPAAILHPEKWPRPATQRLIDPAVEKRVDALLKQLSVEEKVGQVIQGDIGTITPEDLRKYPLGSILAGGNSGPNGDDRAPPKEWLDLADAFYRVSLEKRPGHTPIPVLFGIDAVHGHGNIGSATIFPHNIALGATRDPELLRRIGEVTAVEMAATGIDWTFAPALSVVRDDRWGRTYEGFSEDPEIVAAYSAAIVEGVQGKFGSKDFMAPGRIVASAKHFLADGGTDQGRDQGDARISEDELIRIHNAGYPPAIDAGVLTVMASFSSWQGIKHHGHKQLLTDVLKGQMGFNGFIVGDWNAHDQVPGCTKFNCPTSLIAGLDMYMAADSWKQLYENTLAQVKDGTIPMARLDDAVRRILRVKVLAGLFEKPAPKDRPGLPGLETLGSPEHRAVGREAVRKSLVLLKNDKGTLPLSPKARVLVAGDGADNIGKQSGGWTISWQGTGNRNDEFPGATSILGGIRDAVADAGGSVEFDVAGQYKTKPDVAIVVFGEEPYAEFQGDVETLEYQPDQKQDLALLKKLKDQGIPVVAVFLSGRPMWVNPELNASDAFVAAWLPGTEGGGVADVLFTDKAGKVQHDFAGKLSYSWPRTAAQTTVNRGDADYNPLFAYGYGLTYKDKSKVGTLPEESGVPAEARQNAGIYFRAGALRLPGRFL
B6: Variant No. 94 (protein)
chain: B5 chain with N79D, A143M, V159E, A198S, F211Y

Tests used:
Assay type in all cases: biochemical
[1] = High throughput cellobiose assay: fold improvement in cellobiase activity of CelA variants over a control enzyme (Tables 2A-2D, 3, 5, 6, 7); details: for activity (e.g., thermoactivity) over the wildtype A. irakense β-glucosidase, demonstrated indirectly: shown by improvement over a chain of controls, of which Variant No. 5 was directly compared to the wildtype; for activity (e.g., thermoactivity) over the wildtype A. irakense β-glucosidase: assay of Example 7
[2] = Activity profile at different temperatures and pH using cellobiose (10 g/L) as substrate
Method: β-glucosidase activity was also determined using a cellobiose assay, which used cellobiose as substrate. In a total volume of 100 μL, 25 μL clear media supernatant containing CelA enzyme was added to 10 g/L cellobiose (Fluka Cat. No. 22150, Sigma-Aldrich, Inc., St. Louis, Mo.) in 100 mM sodium phosphate buffer (pH 6-7) or sodium acetate buffer (pH 5-5.5). The reaction was incubated at 45-70° C. for an appropriate time (25 minutes to overnight depending on the enzyme concentration) while shaking. Glucose production was determined using an enzymatic glucose assay (K-GLUC, Megazyme, Ireland). 10 μl of each reaction was added to 190 μl GOPOD reagent (supplied as part of the K-GLUC assay kit). The reaction was incubated at 45° C. for 20 minutes and the absorbance of the solution was measured at 510 nm. The GOPOD reagent contains 50 mM Potassium phosphate buffer pH7.4, 0.011M p-hydroxybenzoic acid, 0.008% w/v sodium azide, glucose oxidase (>12,000 U/L), peroxidase (>650 U/L) and 80 mg/L 4-aminoantipyrine. The glucose oxidase enzyme in the reagent reacts with any glucose present in the sample and produces hydrogen peroxide which then reacts with the 4-aminoantipyrine to produce a quinoneimine dye in quantities proportionate with the amount of glucose present and can be measured spectrophotometrically at 510 nm. Detectable β-glucosidase activity was observed under high throughput screening conditions (i.e., pH 7, 50° C.).
The native CelA activity profile was investigated at different temperatures (40-55° C.) and pH (5.0-8.0) using cellobiose (10 g/L) as a substrate. The experimental and analytical procedures are described in Example 5.
The activity profiles for Variant Nos. 264, 366, 391, 463, and 529 were determined at different temperatures and pH using cellobiose (10 g/L) as a substrate. The experimental and analytical procedures are described in Example 5, incubating the variant with cellobiose at temperatures in the range of 45-80. The results are depicted in FIGS. 7-11. […] The temperature and pH profile for this variant is depicted in FIG. 7. […] The temperature and pH profile for this variant is depicted in FIG. 8. […] The temperature and pH profile for this variant is depicted in FIG. 9. […] (with the pH 6 optimum determined by extrapolation). The temperature and pH profile for this variant is depicted in FIG. 10. […] The temperature and pH profile for this variant is depicted in FIG. 11.

[3] = Saccharification of microcrystalline cellulose by Trichoderma reesei whole cellulase supplemented with β-glucosidase; details: 1 g/L TRWC alone or 25% of TRWC substituted with the β-glucosidase; 200 g/L Avicel, 100 g/L xylose, pH5.5, 55° C., 48 hours
Source text: FIG. 12 illustrates the impact of supplementing a commercially available Trichoderma reesei whole cellulose (“TRWC”) mixture with a CelA variant of the present invention. Compositions containing TRWC were supplemented with β-glucosdiases CelA Variant No. 264 (“Cel var1”), CelA Variant No. 366 (“Cel var2”), and a commercially available Aspergillus niger β-glucosidase (“ANBG”) in a ratio of 3:1 TRWC to β-glucosidase. The effectiveness of each composition at hydrolyzing microcrystalline cellulose was evaluated as described in Example 15. A plot of glucose and cellobiose concentration (g/L) vs. cellulase composition is depicted. The control composition was TRWC with no added β-glucosidase.
The impact of adding a CelA variant of the present invention to commercially available cellulose mixtures and microcrystalline cellulose, Avicel™, was evaluated. In the test reactions, 1 g/L Trichoderma reesei whole cellulose (“TRWC”, Sigma catalog #C85456-10KU (ATCC 26921)) was used to convert 200 g/L of the microcrystalline cellulose Avicel™ (200 mM Sodium acetate; 100 g/L xylose, pH5.5 and 55° C.). The amount of glucose was measured after 48 hours of reaction. As a comparison, 25% of the TRWC was replaced with a β-glucosidase: Variant No. 264 (“Cel var1”), Variant No. 366 (“Cel var2”), or with the commercially available cellobiase, Aspergillus niger beta-glucosidase (“ANBG”, Sigma catalog #49291-1G). […]

[4] = Enzyme stability: residual activity on pNPG after pre-incubation at high temperature and low pH; details: residual activity on pNPG at pH 7, 30° C.; for % residual activity after 10 mins @ pH 5.5, 55° C.: pre-incubation 10 mins at pH 5.5, 55° C.; for % residual activity after 10 mins @ pH 5.5, 55° C. / % residual activity after 6 hours @ pH 5.5, 55° C.: 1 hr; for % residual activity after 1 hour @ pH 5.5, 55° C.: pre-incubation 1 hour at pH 5.5, 55° C.; for % residual activity after 6 hours @ pH 5.5, 55° C.: pre-incubation 6 hours at pH 5.5, 55° C.
Method: Residual activity is determined by exposing the enzyme to stress conditions of elevated temperature for a period of time and then determining the β-glucosidase activity. The β-glucosidase activity of the enzyme exposed to stress conditions (“a”) is compared to that of a control in which the enzyme is not exposed to the stress conditions (“b”), and residual activity is equal to the ratio a/b. Exemplary conditions for determining thermostability are provided in Examples 9 and 13. In one embodiment the enzymes are exposed to stress conditions of 50° C. at pH 5.5 or 55° C. at pH 5.0 or 55° C. at pH 5.5, or 65° C. at pH 5.0 for about 1 hour, and assayed at 30° C., pH 7, for about 0.1 hour.
A colorimetric pNPG (p-nitrophenyl-(β-D-glucopyranoside)-based assay was used for measuring β-glucosidase activity. In a total volume of 100 μL, 20 μL clear media supernatant containing β-glucosidase enzyme was added to 4 mM pNPG (Sigma-Aldrich, Inc. St. Louis, Mo.) solution in 50 mM sodium phosphate buffer at pH6.5. The reactions were incubated at pH 6.5, 45° C. for 1 hour. The reaction mixture was quenched with 100 μL of 1M sodium carbonate pH 11 solution. The absorbance of the solution was measured at 405 nm to determine the conversion of pNPG to p-nitrophenol. The release of p-nitrophenol (ε=17,700 M−1 cm−1) was measured at 405 nm to calculate β-glucosidase activity. Detectable β-glucosidase activity was observed under high throughput screening conditions (pH 7, 50° C.).
Four CelA variants and wildtype CelA were characterized to determine their stabilities at high temperature (55° C.) and low pH (pH5.5) using the method of Example 5A. The samples containing various CelA variant enzymes were pre-incubated at pH 5.5, 55° C. for 0-6 hrs. The residual enzyme activity after the thermal challenge was measured using pNPG as substrate at pH 7, 30° C. for 1 hr. […] The mutations listed in the table are indicated relative to SEQ ID NO: 4, the wildtype CelA. These sequences included residues GTS prior to the N-terminus of SEQ ID NO: 4 (prepared as described in Example 1). […]

Row | Molecule | activity (e.g., thermoactivity) over the wildtype A. irakense β-glucosidase, demonstrated indirectly [1] | pH of optimum activity [2] | temperature of optimum activity [2] | activity (e.g., thermoactivity) over the wildtype A. irakense β-glucosidase [1] | % residual activity after 10 mins @ pH 5.5, 55° C. [4] | % residual activity after 1 hour @ pH 5.5, 55° C. [4] | % residual activity after 6 hours @ pH 5.5, 55° C. [4] | other results
1 | B1 | improved activity | 6 pH | 66 °C | – | – | – | – | –
2 | B2 | improved activity | 5.5 pH | 69 °C | – | – | – | – | –
3 | B3 | improved activity | – | 69 °C | – | – | – | – | pH of optimum activity (determined by extrapolation) ([2]; pH optimum determined by extrapolation): 6 pH
4 | B4 | – | – | – | – | – | – | – | cellobiose and glucose combined yielded in saccharification reaction [3]: comparable results
5 | B5 | – | – | – | improved activity | 0% | 0% | 0% | –
6 | B6 | – | – | – | improved activity | 3% | 0% | 0% | –
